For assay [1], the target named is histone H1 present on surfaces of apoptotic cells (apoptotic SNU16 human stomach cancer cells) (human) (UniProt P07305). Kind of assay: flow cytometry, FITC-peptide on SNU16 cells treated with cetuximab alone for 24 h.
Assay [2] has the same target. Kind of assay: flow cytometry, FITC-peptide on SNU16 cells treated with cisplatin alone for 24 h. (A flow cytometer gives signals particle by particle.)
Assay [3] shares this target. Kind of assay: flow cytometry, FITC-peptide on SNU16 cells treated with cisplatin and cetuximab in combination for 24 h.

Regarding “linear form of ApoPep-1 (CQRPPR) (peptide)”, the percentage of apoptotic cells detected (peptide-bound fluorescent cells) in assay [1] came to 25%; in assay [2], 28%; in assay [3], 34%.
In the same order, the values of “cyclic form of ApoPep-1 (cyclo[Cys-Gln-Arg-Pro-Pro-Arg-Cys] peptide)” are 49%, 56% and 78%.

The values are drawn from patent US20170340698A1, “CYCLIC PEPTIDE SPECIFICALLY BINDING TO APOPTOTIC CELLS AND USE THEREOF” (KYUNGPOOK NATIONAL UNIVERSITY INDUSTRY-ACADEMIC COOPERATION …, priority 2014, published 2017).
